In US20230295310A1 (ABCELLERA BIOLOGICS, published 2023):

Target: human CD3 (human, UniProt P07766 23-207; P04234 22-171; P09693 23-182)
Assay: cell-based or functional assay

Sequence of human CD3 (P07766 23-207, chain 1 of 3): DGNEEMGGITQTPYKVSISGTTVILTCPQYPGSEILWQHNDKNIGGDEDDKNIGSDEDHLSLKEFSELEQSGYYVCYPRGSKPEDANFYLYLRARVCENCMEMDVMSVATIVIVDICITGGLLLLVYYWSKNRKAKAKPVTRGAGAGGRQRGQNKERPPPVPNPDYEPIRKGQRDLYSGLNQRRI
Sequence of human CD3 (P04234 22-171, chain 2 of 3): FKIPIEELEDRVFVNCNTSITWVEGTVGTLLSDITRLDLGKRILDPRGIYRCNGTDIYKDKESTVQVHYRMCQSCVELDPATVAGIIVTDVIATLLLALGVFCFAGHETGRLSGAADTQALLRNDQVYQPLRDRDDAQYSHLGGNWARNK
Sequence of human CD3 (P09693 23-182, chain 3 of 3): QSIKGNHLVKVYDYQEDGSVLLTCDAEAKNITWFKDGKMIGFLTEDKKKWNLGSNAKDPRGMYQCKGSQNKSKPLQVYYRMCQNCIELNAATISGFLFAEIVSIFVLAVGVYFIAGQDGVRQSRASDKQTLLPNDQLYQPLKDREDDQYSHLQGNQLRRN

Binder | CD4 EC50 (nM); CD69/CD25 on human T cells, plate-coated antibody [nM] | CD8 EC50 (nM); CD69/CD25 on human T cells, plate-coated antibody [nM]
mAb 118 (antibody, V domains shown) VH: EVQLVESGGGLVQPGRSLRLSCAASGFTFDDYTMHWVRQAPGKGLEWVSGISWNSGSIGYADSVKGRFTISRDNAKNSLYLQMNSLRAEDTALYYCSKDSSGYGYYLNYSLDVWGKGTTVTVSS VL: not shown | 10.4 | 11.2
mAb 119 (antibody, V domains shown) VH: EVQLVESGGGLVQPGRSLRLSCAASGFTFDDYTMHWVRQAPGKGLEWVSGISWNSGSIGYADSVKGRFTISRDNAKNSLYLQMNSLRAEDTALYYCSKDSSGYGYYLNYSLDVWGKGTTVTVSS VL: EIVMTQSPATLSVSPGERATLSCRASQSVSNLAWYQQKPGQAPRLLIYGASTRATGIPARFSGSGSGTEFTLTISSLQSEDFAVYYCQQYNNWPHFGQGTRLQIK | 12.9 | 13.8
mAb 121 (antibody, V domains shown) VH: EVQLVESGGGLVQPGRSLRLSCATSGFTFADYTMHWVRQAPGKGLEWVSGISWNSGSIDYADSVKGRFTISRDNAKKSLYLQMNSLRAEDTALYFCAKDSSGYGHYYFYYLDVWGKGTTVTVSS VL: EIVMTQSPGTLSVSPGKRATLSCRASQSVSSNLAWYQQKPGQGPRLLIYSTSTRATGIPARFSGSGSGTEFTLTISSLQSEDSAVYYCQHYNNWPHFGQGTRLEIK | 12.3 | 12.3
mAb 126 (antibody, V domains shown) VH: EVQLVESGGGLVQPGRSLRLSCAASGFTFNDYTMHWVRQVPGKGLEWVSGISWNSGSIDYADSVKGRFTISRDNAKNSLYLQMNSLRAEDTALYYCAKDSSGYGYYYYYYMDVWGKGTTVTVSS VL: EIVMTQSPATLSVSPGERATLSCRASQSVSINLAWYQQKPGQAPRLLIYGASTRATGIPARFSGSGSGTEFTLTISSLQSEDFAVYYCQLYHNWPHFGQGTRLEIK | 10.2 | 11
mAb 117 (antibody, V domains shown) VH: EVQLVESGGGLVKTGGSLRLSCVASGFSFKKAWMNWVRQAPGKGLEWVGRIKRNTDGGTTDYAAPVKGRFTLSRDDSKNTLYLQMNSLKTEDTAVYYCTTLDSSSLYVGYYYMDVWGKGTTVTVSS VL: DIQMTQSPSSVSASVGDRVTITCRASQDINNWLAWYQQKPGKAPKLLIYTASSLQSGVPSRFSGSGSGTDFTLTISSLQPEDFATYYCQQAHSLPITFGQGTRLEIK | 6.49 | 6.59
mAb 123 (antibody, V domains shown) VH: DVQLVESGGGTVKTGGSLRLSCVASGFSFKKAWMNWVRQAPGKGLEWVGRIKKNSDDGTADYAAPVKGRFTISRDDSKRTLFLQMNSLQTEDTAVYYCTTLDSSSWFVGYYYMDVWGKGTTVTVSS VL: DIQMTQSPSSVSASVGDRVIITCRASQDINNWLAWYQQKPGKAPKLLIYTASSLQSGVPSRFSGSGSVSDFTLTIDSLQPEDFATYYCQQAHSLPITFGQGTRLEIK | 11.7 | 11.6
mAb 120 (antibody, V domains shown) VH: EVQLVESGGGLVKTGGSLRLSCVASGFSFKKAWMNWVRQAPGKGLEWVGRIKRNTDGGTADYAAPVKGRFTLSRDDSKKTLFLQMNSLKTEDTAVYYCTTLDSSSYYVGYYYMDVWGKGTTVTVSS VL: DIQMTQSPSSVSASVGDRVTITCRASQDINNWLAWYQQKPGKAPKLLIYTASSLQSGVPSRFSGSGSGTDFTLTIGSLQPEDFATYYCQQAHSLPITFGQGTRLEIK | 6.41 | 6.46
